Changes are numbered by the printed parent chain.
Columns and labels:
[1] = target: T1, human plasma-derived FIXa (Haematologic Technologies Inc) (human, UniProt P00740 47-191; P00740 227-461); experiment: cell-based or functional assay
[2] = target: T1, human plasma-derived FIXa (Haematologic …); experiment: cell-based or functional assay; remark: listed apart in the source

T1 sequence (P00740 47-191, chain 1 of 2): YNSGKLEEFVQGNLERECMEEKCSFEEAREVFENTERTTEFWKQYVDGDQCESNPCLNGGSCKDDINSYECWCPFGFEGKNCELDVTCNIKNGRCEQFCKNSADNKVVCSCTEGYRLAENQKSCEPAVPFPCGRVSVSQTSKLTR
T1 sequence (P00740 227-461, chain 2 of 2): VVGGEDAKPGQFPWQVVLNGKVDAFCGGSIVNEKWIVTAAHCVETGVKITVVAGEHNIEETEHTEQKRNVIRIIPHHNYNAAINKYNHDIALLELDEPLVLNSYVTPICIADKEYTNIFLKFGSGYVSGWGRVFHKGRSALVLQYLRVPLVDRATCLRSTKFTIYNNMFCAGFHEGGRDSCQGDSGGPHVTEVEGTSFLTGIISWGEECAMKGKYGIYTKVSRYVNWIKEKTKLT

B1: mAb4-9578 (monovalent one-armed version of mAb1-7977) (antibody, V domains shown)
VH: EVQLVESGGGLVQPGRSLKLSCAASGFRFDDYAMHWVRQAPGKGLEWVSGISWRGAQIGYADSVKGRFTISRDNAKNSLYLQLNSLRAEDTALYYCAKSYGSGSFYNAFDSWGQGTLVTVSS
VL: DIQMTQSPSTLSASVGDRVTITCRASQKISSWLAWYQQKPGKAPKFLIYKASRLDRGVPSRFSGSGSGTEFSLTISSLQPDDFATYYCLEYRSYIRTFGQGTKVEIK
[1]
  Stimulation index at 800 nM OA antibody: 850 fold

B2: mAb5-0161 (monovalent one-armed version of mAb1-8785) (antibody, V domains shown)
VH: B1 VH with R28T, D30H, A40V, A56D, Q57I, A61V, A75K, A97V
VL: B1 VL with V15A, K28S, R92S
[1]
  Stimulation index at 800 nM OA antibody: 621 fold

B3: mAb5-0152 (monovalent one-armed version of mAb1-8782) (antibody, V domains shown)
VH: B1 VH with R28T, D30H, A40V, A56D, Q57I, I58T, A61V, A97V
VL: B1 VL with V15A, K28S, R92S
[1]
  Stimulation index at 1600 nM OA antibody: 417 fold

B4: mAb5-0144 (monovalent one-armed version of mAb1-8780) (antibody, V domains shown)
VH: B1 VH with R28T, D30H, A40V, A56D, Q57I, I58K, A61V, A97V
VL: B1 VL with V15A, K28S, R92S
[1]
  Stimulation index at 1600 nM OA antibody: 1650 fold

B5: mAb5-0514 (monovalent one-armed version of mAb1-8543) (antibody, V domains shown)
VH: B1 VH with G26K, A40V, A56D, Q57I, A61V, A75E, A97V
VL: B1 VL with V15A, K28S, D55E, G57D
[1]
  Stimulation index at 1600 nM OA antibody: 283 fold

B6: mAb5-0658 (monovalent one-armed version of mAb1-8679) (antibody, V domains shown)
VH: B1 VH with R28T, A40V, A56D, Q57I, A61V, D62K, A97V
VL: B1 VL with Q27K, K28S, S30K, D55E, R92S
[1]
  Stimulation index at 1600 nM OA antibody: 918 fold

B7: mAb5-1270 (monovalent one-armed version of mAb1-9016) (antibody, V domains shown)
VH: B1 VH with R28T, A40V, A56D, Q57I, I58G, A61V, A97V
VL: B1 VL with V15A, K28S, D55E, R92S
[1]
  Stimulation index at 1600 nM OA antibody: 4320 fold

B8: mAb5-1263 (monovalent one-armed version of mAb1-9015) (antibody, V domains shown)
VH: B1 VH with R28T, A40V, A56D, Q57I, I58K, A61V, A97V
VL: B1 VL with V15A, K28S, D55E, R92S
[1]
  Stimulation index at 1600 nM OA antibody: 1330 fold

B9: mAb5-1257 (monovalent one-armed version of mAb1-9002) (antibody, V domains shown)
VH: B1 VH with G26K, R28T, A40V, A56D, Q57I, A61V, A97V
VL: B1 VL with V15A, K28S, D55E, R92S
[1]
  Stimulation index at 800 nM OA antibody: 567 fold

B10: mAb5-1528 (monovalent one-armed version of mAb1-9058) (antibody, V domains shown)
VH: B1 VH with R28T, D30H, A40V, A56D, Q57I, A61V, A97V
VL: B1 VL with V15A, T22S, K28S, S72T, R92N
[1]
  Stimulation index at 1600 nM OA antibody: 531 fold

B11: mAb5-1695 (monovalent one-armed version of mAb1-9134) (antibody, V domains shown)
VH: B1 VH with R28T, A40V, R54K, A56D, Q57I, A61V, A97V
VL: B1 VL with V15A, K28S, S31E, R92S
[1]
  Stimulation index at 1600 nM OA antibody: 320 fold

B12: mAb5-0908 (monovalent one-armed version of mAb1-8467) (antibody, V domains shown)
VH: B1 VH with G26K, A40V, A56D, Q57I, A61V, A75E, A97V
VL: B1 VL with V15A, Q27K, K28S, D55E, R92S
[1]
  Stimulation index at 1600 nM OA antibody: 1020 fold

B13: mAb5-2035 (monovalent one-armed version of mAb1-9285) (antibody, V domains shown)
VH: B1 VH with R28T, A40V, A56D, Q57I, A61V, D62K, A88I, A97V
VL: B1 VL with V15A, Q27K, K28S, D55E, R92S
[1]
  Stimulation index at 800 nM OA antibody: 732 fold

B14: mAb5-0900 (monovalent one-armed version of mAb1-8459) (antibody, V domains shown)
VH: B1 VH with R28T, A40V, A56D, Q57I, A61V, D62K, A88I, A97V
VL: B1 VL with V15A, Q27K, K28S, S52E, D55E, R92S
[1]
  Stimulation index at 1600 nM OA antibody: 799 fold

B15: mAb4-3505 (monovalent one-armed version of mAb1-5797) (antibody, V domains shown)
VH: EVQLVQSGAEVKKPGESLRISCKGSGYRFTSYWIGWVRQMPGKGLEWMGMIDPTDSYTDYGPSFHGHVTISADKSISTAYLQWSSLKASDTAMYYCARMRIMSGAFDIWGQGTMVTVSS
VL: DIVMTQSPLSLPVTPGEPASISCRSSQSLLHSTWYNYLNWYLQKPGQSPQLLIYLGSRRASGVPDRFSGSGSGTDFTLKISRVEAEDVGVYYCMQVLHIPYTFGQGTKLEIK
[1]
  Stimulation index at 474 nM OA antibody: 382 fold

B16: mAb4-3503 (monovalent one-armed version of mAb1-5796) (antibody, V domains shown)
VH: B15 VH with R28S, T30R, S31P, T54S, M99V
VL: B15 VL with S57K, R58N
[1]
  Stimulation index at 900 nM OA antibody: 239 fold

B17: mAb4-3490 (monovalent one-armed version of mAb1-5783) (antibody, V domains shown)
VH: B15 VH with R28S, T30R, S31P, T54S, H65R, M99V, M102R, S103A
VL: B15 VL with S32R, S57R, R58N
[1]
  Stimulation index at 264 nM OA antibody: 1040 fold

B18: mAb4-3486 (monovalent one-armed version of mAb1-5781) (antibody, V domains shown)
VH: B15 VH with R28S, T30K, S31P, T54S, H65R, M99V, M102R, S103A
VL: B15 VL with S32R, S57R, R58N
[1]
  Stimulation index at 564 nM OA antibody: 1220 fold

B19: mAb4-3461 (monovalent one-armed version of mAb1-5754) (antibody, V domains shown)
VH: B15 VH with R28S, T30R, S31P, T54S, H65E, M99V, M102R, S103A
VL: B15 VL with S28R, W34G, S57K, R58N
[1]
  Stimulation index at 1478 nM OA antibody: 615 fold

B20: mAb4-5375 (monovalent one-armed version of mAb1-6609) (antibody, V domains shown)
VH: B15 VH with S31P, H65R, M99V, M102R
VL: B15 VL with R58N, V96A
[1]
  Stimulation index at 800 nM OA antibody: 94 fold

B21: mAb4-5368 (monovalent one-armed version of mAb1-6606) (antibody, V domains shown)
VH: B15 VH with R28S, T30R, S31P, T54S, H65E, M99V, M102R, S103A
VL: B15 VL with R58N, V96A
[1]
  Stimulation index at 800 nM OA antibody: 133 fold

B22: mAb4-5344 (monovalent one-armed version of mAb1-6592) (antibody, V domains shown)
VH: B15 VH with R28S, T30R, S31P, T54S, H65R, M99V, M102R, S103A
VL: B15 VL
[1]
  Stimulation index at 800 nM OA antibody: 916 fold

B23: mAb4-5357 (monovalent one-armed version of mAb1-6590) (antibody, V domains shown)
VH: B15 VH with R28S, T30R, S31P, T54S, H65E, M99V, M102R, S103A
VL: B15 VL
[1]
  Stimulation index at 800 nM OA antibody: 1290 fold

B24: mAb4-5342 (monovalent one-armed version of mAb1-6586) (antibody, V domains shown)
VH: B15 VH
VL: B15 VL with S57K, R58N
[1]
  Stimulation index at 800 nM OA antibody: 94 fold

B25: mAb4-5355 (monovalent one-armed version of mAb1-6584) (antibody, V domains shown)
VH: B15 VH with R28S, T30R, S31P, T54S, H65R, M99V, M102R, S103A
VL: B15 VL with S57K, R58N
[1]
  Stimulation index at 800 nM OA antibody: 580 fold

B26: mAb4-5347 (monovalent one-armed version of mAb1-6582) (antibody, V domains shown)
VH: B15 VH with R28S, T30R, S31P, T54S, H65E, M99V, M102R, S103A
VL: B15 VL with S57K, R58N
[1]
  Stimulation index at 800 nM OA antibody: 692 fold

B27: mAb4-5337 (monovalent one-armed version of mAb1-6566) (antibody, V domains shown)
VH: B15 VH with R28S, T30R, S31P, T54S, H65E, M99V, M102R, S103A
VL: B15 VL with S32R, S57R, R58N
[1]
  Stimulation index at 204 nM OA antibody: 690 fold

B28: mAb5-0057 (bispecific, mAb1-8768/mAb1-6723) (bispecific antibody, V domains shown)
VH 1: B1 VH with R28T, D30H, A40V, A56D, Q57I, A61V, A97V
VL 1: B1 VL with V15A, K28S, V58T, R92S
VH 2: EVQLVQSGAEVKKPGESLRISCKGSGYSFTTSWIVWVRQMPGKGLEWMGMIDPSDSFTSYSPSFQGHVTISADKSISTAYLQWSSLKASDTAMYYCARLHYYHSEEFDVWGQGTLVTVSS
VL 2: EIVLTQSPGTLSLSPGERATLSCRASQSVSSSYLAWYQQKPGQAPRLLIYGASSRARGIPDRFSGSGSGTDFTLTISRLEPEDFAVYYCQQFGSSRLFTFGQGTKLEIK
[2]
  Maximum stimulation (fold), at 1218 nM BiAb: 10800 fold

B29: mAb5-1409 (bispecific, mAb1-8768/mAb1-7503) (bispecific antibody, V domains shown)
VH 1: B1 VH with R28T, D30H, A40V, A56D, Q57I, A61V, A97V
VL 1: B1 VL with V15A, K28S, V58T, R92S
VH 2: B28 VH 2
VL 2: B28 VL 2 with A56T, Q102E
[2]
  Maximum stimulation (fold), at 1115 nM BiAb: 11000 fold

B30: mAb4-7687 (bispecific, mAb1-6037/mAb1-6723) (bispecific antibody, V domains shown)
VH 1: B1 VH with R28T, A40V, A56D, Q57I, A61V, A97V
VL 1: B1 VL with V15A, K28S, S31E, R92S
VH 2: B28 VH 2
VL 2: B28 VL 2
[2]
  Maximum stimulation (fold), at 1650 nM BiAb: 2490 fold

B31: mAb4-7756 (bispecific, mAb1-6584/mAb1-6723) (bispecific antibody, V domains shown)
VH 1: B15 VH with R28S, T30R, S31P, T54S, H65R, M99V, M102R, S103A
VL 1: B15 VL with S57K, R58N
VH 2: B28 VH 2
VL 2: B28 VL 2
[2]
  Maximum stimulation (fold), at 1520 nM BiAb: 2600 fold

B32: mAb4-7758 (bispecific, mAb1-6584/mAb1-6097) (bispecific antibody, V domains shown)
VH 1: B15 VH with R28S, T30R, S31P, T54S, H65R, M99V, M102R, S103A
VL 1: B15 VL with S57K, R58N
VH 2: EVQLVESGGGLVKPGGSLRLSCAASGFTFSNAHMNWVRQAPGKGLEWVGRIKRKTDGGTTDYAAPVKGRFTISRDDSKNTLYLQMNSLKTEDTAVYYCTTDGIAVAGPLRVYWGQGTLVTVSS
VL 2: not shown
[2]
  Maximum stimulation (fold), at 633 nM BiAb: 2810 fold

B33: mAb4-7762 (bispecific, mAb1-6584/mAb1-6738) (bispecific antibody, V domains shown)
VH 1: B15 VH with R28S, T30R, S31P, T54S, H65R, M99V, M102R, S103A
VL 1: B15 VL with S57K, R58N
VH 2: B32 VH 2 with N31D, H33W, N86D
VL 2: not shown
[2]
  Maximum stimulation (fold), at 109 nM BiAb: 3190 fold

B34: mAb4-7786 (bispecific, mAb1-6081/mAb1-6463) (bispecific antibody, V domains shown)
VH 1: B1 VH with R28T, D30H, A40V, A56D, Q57I, A61V, A97V
VL 1: B1 VL with V15A, K28S, R92S
VH 2: not shown
VL 2: not shown
[2]
  Maximum stimulation (fold), at 4060 nM BiAb: 1270 fold

B35: mAb4-7789 (bispecific, mAb1-6584/mAb1-6463) (bispecific antibody, V domains shown)
VH 1: B15 VH with R28S, T30R, S31P, T54S, H65R, M99V, M102R, S103A
VL 1: B15 VL with S57K, R58N
VH 2: not shown
VL 2: not shown
[2]
  Maximum stimulation (fold), at 253 nM BiAb: 3530 fold

Source: patent US20250011468A1 (Novo Nordisk, published 2025)
